Measured values published in doi:10.1101/2025.09.11.675549, “CCDC103-mediated assembly of the R2C complex links RUVBL1-RUVBL2 to Primary Ciliary Dyskinesia” (bioRxiv, 2025).

Assays:
[1] = molecular target: T1, RUVBL1-RUVBL2-strep complex (6XHIS-RUVBL1-RUVBL2-strep) (human, UniProt Q9Y265 1-456; Q9Y230 1-463); assay: pull-down; RUVBL1-RUVBL2-strep held on Streptavidin Mag Sepharose beads, full-length CCDC103 as prey; 50mM HEPES pH 7.5, 140mM NaCl, 0.001% Tween 20; eluted with 2.5mM desthiobiotin; SDS-PAGE; conditions: both partners purified
T1 construct: RUVBL1 (RuvB like 1), human, UniProt Q9Y265; RUVBL2 (RuvB like 2), human, UniProt Q9Y230; also called RUVBL1-RUVBL2 complex; hetero-hexameric ring; source: E. coli Rosetta (DE3) pLysS (pRSETA and pCDF Duet 1), purified by a previously defined protocol; not shown: Strep, C-terminal, kept; copies: 3 + 3
T1 sequence (Q9Y265 whole entry, chain 1 of 2): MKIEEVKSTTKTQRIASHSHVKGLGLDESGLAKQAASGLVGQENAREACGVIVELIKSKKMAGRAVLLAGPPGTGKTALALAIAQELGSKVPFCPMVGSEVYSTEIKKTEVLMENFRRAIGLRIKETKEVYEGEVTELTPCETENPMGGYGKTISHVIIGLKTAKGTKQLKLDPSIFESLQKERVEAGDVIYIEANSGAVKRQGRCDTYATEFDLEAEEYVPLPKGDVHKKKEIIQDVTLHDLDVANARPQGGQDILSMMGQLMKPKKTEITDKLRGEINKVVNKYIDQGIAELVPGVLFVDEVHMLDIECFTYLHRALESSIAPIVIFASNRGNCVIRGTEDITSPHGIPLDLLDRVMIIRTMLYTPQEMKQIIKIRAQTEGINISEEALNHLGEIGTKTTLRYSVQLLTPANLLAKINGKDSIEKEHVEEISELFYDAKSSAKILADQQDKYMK
T1 sequence (Q9Y230 whole entry, chain 2 of 2): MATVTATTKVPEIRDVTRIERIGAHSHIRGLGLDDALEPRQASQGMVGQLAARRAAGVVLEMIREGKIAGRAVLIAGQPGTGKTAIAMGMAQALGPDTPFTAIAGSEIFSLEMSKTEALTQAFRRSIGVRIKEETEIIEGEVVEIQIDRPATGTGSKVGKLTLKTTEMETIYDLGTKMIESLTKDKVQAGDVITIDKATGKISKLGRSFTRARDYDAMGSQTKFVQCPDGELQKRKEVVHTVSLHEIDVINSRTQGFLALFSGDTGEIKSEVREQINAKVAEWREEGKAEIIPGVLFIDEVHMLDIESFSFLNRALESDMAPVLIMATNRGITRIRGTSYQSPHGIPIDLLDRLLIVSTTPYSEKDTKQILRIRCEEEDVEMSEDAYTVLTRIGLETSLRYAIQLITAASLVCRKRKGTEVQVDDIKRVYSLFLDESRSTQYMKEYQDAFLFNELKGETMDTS

[2] = molecular target: T1, RUVBL1-RUVBL2-strep complex …; assay: pull-down; 10 uM GST-CCDC103 RBD and 10 uM RUVBL1-RUVBL2 on GST beads; 50mM HEPES pH 7.5, 140mM NaCl, 0.001% Tween 20; 45 min at 4 C; three washes; SDS-PAGE; conditions: both partners purified

Binder | binding result [1] | binding result [2]
full-length CCDC103 (natural protein, human, UniProt Q8IW40 1-242, looked up, CCDC103 (DNAAF19), human, UniProt Q8IW40, full length; or Sf9, Flag-tagged) stood in the strep pull-down, so the tag is left open; also called CCDC103FL; DNAAF19) MERNDIINFKALEKELQAALTADEKYKRENAAKLRAVEQRVASYEEFRGIVLASHLKPLERKDKMGGKRTVPWNCHTIQGRTFQDVATEISPEKAPLQPETSADFYRDWRRHLPSGPERYQALLQLGGPRLGCLFQTDVGFGLLGELLVALADHVGPADRAAVLGILCSLASTGRFTLNLSLLSRAERESCKGLFQKLQAMGNPRSVKEGLSWEEQGLEEQSGGLQEEERLLQELLELYQVD | binds | –
GST-tagged RBD domain of CCDC103 (domain or fragment, human, UniProt Q8IW40 100-242, looked up, CCDC103, human, UniProt Q8IW40, RBD without the first 99 residues (lacks N-terminal 1-99); also called GST-CCDC103 RBD; source: E. coli Rosetta (DE3) pLysS (pGEX6-P1), purified (glutathione Sepharose 4B); not shown: GST, N-terminal, kept) ETSADFYRDWRRHLPSGPERYQALLQLGGPRLGCLFQTDVGFGLLGELLVALADHVGPADRAAVLGILCSLASTGRFTLNLSLLSRAERESCKGLFQKLQAMGNPRSVKEGLSWEEQGLEEQSGGLQEEERLLQELLELYQVD | – | binds
